In article PMC10967246, “A novel tetratricopeptide-repeat protein, TTP1, forms complexes with glutamyl-tRNA reductase and protochlorophyllide oxidoreductase during tetrapyrrole biosynthesis” (Journal of Experimental Botany, 2023):

Assays:
Test in all cases: MST; 200 nM RED-NHS-labelled 6×His–TTP1 constant, decreasing amounts of the binding partner; phosphate-buffered saline; Monolith NT.115, standard capillaries, excitation 100%, MST power 40%; Kd fit for 1:1 stoichiometry
Settings in all cases: both partners purified
[1] = target: T1, recombinant His-tagged GluTR-binding protein (GBP) (Arabidopsis, UniProt Q9LU39 43-317)
T1 construct: source: recombinant, His-tagged
T1 sequence (looked up): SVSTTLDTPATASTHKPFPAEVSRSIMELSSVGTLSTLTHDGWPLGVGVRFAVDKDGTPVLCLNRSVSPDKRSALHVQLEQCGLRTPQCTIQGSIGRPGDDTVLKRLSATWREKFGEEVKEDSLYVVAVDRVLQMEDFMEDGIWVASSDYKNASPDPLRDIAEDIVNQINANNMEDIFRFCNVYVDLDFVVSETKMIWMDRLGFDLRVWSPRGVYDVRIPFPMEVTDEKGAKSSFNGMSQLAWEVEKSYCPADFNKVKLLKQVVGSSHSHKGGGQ

[2] = target: T2, recombinant His-tagged PORC (Arabidopsis, UniProt O48741 68-401)
T2 construct: protochlorophyllide oxidoreductase C, Arabidopsis; source: recombinant, His-tagged
T2 sequence (looked up): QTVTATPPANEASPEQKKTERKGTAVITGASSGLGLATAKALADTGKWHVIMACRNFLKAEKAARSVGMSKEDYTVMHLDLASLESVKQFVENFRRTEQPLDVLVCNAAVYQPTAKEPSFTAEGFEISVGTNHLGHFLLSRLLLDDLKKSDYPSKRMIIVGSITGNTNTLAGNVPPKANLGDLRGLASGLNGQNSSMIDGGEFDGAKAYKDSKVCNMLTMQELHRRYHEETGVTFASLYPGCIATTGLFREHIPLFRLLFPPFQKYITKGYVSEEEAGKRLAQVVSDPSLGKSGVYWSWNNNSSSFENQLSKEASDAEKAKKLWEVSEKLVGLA

[3] = target: T3, recombinant His-tagged full-length GluTR1 (Arabidopsis, UniProt P42804 62-543)
T3 construct: glutamyl-tRNA reductase 1 (HEMA1), Arabidopsis; called full-length GluTR1 in the legend; source: recombinant, His-tagged

[4] = target: T4, recombinant His-tagged PORB (Arabidopsis, UniProt P21218 67-401)
T4 construct: protochlorophyllide oxidoreductase B, Arabidopsis; source: recombinant, His-tagged
T4 sequence (looked up): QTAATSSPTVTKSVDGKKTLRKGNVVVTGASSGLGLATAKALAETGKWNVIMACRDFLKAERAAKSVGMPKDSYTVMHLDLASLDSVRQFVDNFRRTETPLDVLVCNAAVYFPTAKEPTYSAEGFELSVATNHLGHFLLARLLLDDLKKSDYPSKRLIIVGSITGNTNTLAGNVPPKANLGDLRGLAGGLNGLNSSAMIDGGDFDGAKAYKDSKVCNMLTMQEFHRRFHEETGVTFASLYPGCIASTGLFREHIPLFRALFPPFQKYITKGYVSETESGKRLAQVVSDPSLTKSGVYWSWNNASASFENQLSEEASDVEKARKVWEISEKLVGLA

Measured: Kd

B1: recombinant 6×His-tagged TTP1, RED-NHS labelled (natural protein)
chain: MLMTLAATTSVSFNSKLLLFRIRCSDSNPKRGFGSKKEEKDPALQQRKSSSKQSVSVPRKAPGLNTQFEGKSGRSFDIDFDERLENIRRSALEQKKTEVVKEFGPIDYDAPVKSDQKTIGLGTKVGVGIAVVVFGLVFALGDFLPTGSDSPTKNTTVVKNQISEEEKATLQQRLKEFETTLNGTPQDQAALEGAAVTLTELGDYSRAAAFLEKLAKERPTDPDVFRLLGEVNYELNNYEGSIAAYKISEKVSKGIDLEVTRGLMNAYLAAKKPDEAVKFLLDTRERLNTKKTSTTDSVTDETNLDPIQVELLLGKAYSDWGHISDAIAVYDQLISAHPEDFRGYLAKGIILRENGSRGDAERMFIQARFFAPNKAKALVDRYSKL
modifications: labelled with the RED-NHS Protein Labeling Kit, degree of labeling approximately 1.0
< 1000 nM: all assays above
